Laboratory results as given in publication PMC1888833 (Nucleic Acids Research, 2007).
Where a chain is given by its changes, count along the chain named.

B1: HpDnaBDelN3 (N-terminal deletion mutant N3 of HpDnaB, lacking 174 N-terminal residues) (domain or fragment)
chain: EVTGIPTGFVQLDNYTSGFNKGSLVIIGARPSMGKTSLMMNMVLSALNDDRGVAVFSLEMSAEQLALRALSDLTSINMHDLESGRLDDDQWENLAKCFDHLSQKKLFFYDKSYVRIEQIRLQLRKLKSQHKELGIAFIDYLQLMSGSKATKERHEQIAEISRELKTLARELEIPIIALVQLNRSLENRDDKRPILSDIKDSGGIEQDADIVLFLYRGYIYQMRAEDNKIDKLKKEGKIEEAQELYLKVNEERRIHKQNGSIEEAEIIVAKNRNGATGTVYTRFNAPFTRYEDMPIDSHLEEGQETKVDYDIVTT
B2: Helicobacter pylori DnaB helicase, wild-type, full-length (enzyme, Helicobacter pylori (strain 26695), UniProt O25916 1-488, looked up)
chain: MDHLKHLQQLQNIERIVLSGIVLANHKIEEVHSVLEPSDFYYPPNGLFFEIALKLHEEDCPIDENFIRQKMPKDKQIKEEDLVAIFAASPIDNIEAYVEEIKNASIKRKLFGLANTIREQALESAQKSSDILGAVEREVYALLNGSTIEGFRNIKEVLESAMDLITENQRKGSLEVTGIPTGFVQLDNYTSGFNKGSLVIIGARPSMGKTSLMMNMVLSALNDDRGVAVFSLEMSAEQLALRALSDLTSINMHDLESGRLDDDQWENLAKCFDHLSQKKLFFYDKSYVRIEQIRLQLRKLKSQHKELGIAFIDYLQLMSGSKATKERHEQIAEISRELKTLARELEIPIIALVQLNRSLENRDDKRPILSDIKDSGGIEQDADIVLFLYRGYIYQMRAEDNKIDKLKKEGKIEEAQELYLKVNEERRIHKQNGSIEEAEIIVAKNRNGATGTVYTRFNAPFTRYEDMPIDSHLEEGQETKVDYDIVTT
B3: HpDnaBMut (ATP binding site mutant, R204 to C in the WALKER A domain) (enzyme, Helicobacter pylori (strain 26695), UniProt O25916 1-488, looked up)
chain: B2 chain with R204C
B4: HpDnaBDelN2 (N-terminal deletion mutant N2 of HpDnaB, lacking 133 N-terminal residues) (domain or fragment)
chain: AVEREVYALLNGSTIEGFRNIKEVLESAMDLITENQRKGSLEVTGIPTGFVQLDNYTSGFNKGSLVIIGARPSMGKTSLMMNMVLSALNDDRGVAVFSLEMSAEQLALRALSDLTSINMHDLESGRLDDDQWENLAKCFDHLSQKKLFFYDKSYVRIEQIRLQLRKLKSQHKELGIAFIDYLQLMSGSKATKERHEQIAEISRELKTLARELEIPIIALVQLNRSLENRDDKRPILSDIKDSGGIEQDADIVLFLYRGYIYQMRAEDNKIDKLKKEGKIEEAQELYLKVNEERRIHKQNGSIEEAEIIVAKNRNGATGTVYTRFNAPFTRYEDMPIDSHLEEGQETKVDYDIVTT

What was measured:
HpDnaBWt = HpDnaBWt (Helicobacter pylori, UniProt O25916); details: labelled compound; pH 7.5, 4 °C, UV 254 nm
HpDnaBDelN3 = HpDnaBDelN3 (Helicobacter pylori, UniProt O25916); details: labelled compound; pH 7.5, 4 °C, UV 254 nm
SEC = target: the molecule itself; test: SEC

Molecule | UV cross-linking, SDS-PAGE, phosphorimager (HpDnaBWt) | UV cross-linking, SDS-PAGE, phosphorimager (HpDnaBDelN3) | stoichiometry N (SEC)
Nc1ncnc2c1ncn2[C@@H]1O[C@H](COP(=O)(O)OP(=O)(O)OP(=O)(O)O)[C@@H](O)[C@H]1O [∝-32PATP] | Wild-type, DelN2 and DelN3 showed ATP binding | Wild-type, DelN2 and DelN3 showed ATP binding | 
B1 |  |  | 2
B2 |  |  | 6
B3 |  |  | 6
B4 |  |  | 6
